Read-outs that look alike come from different tables or passages of the source. Each block holds one binder with its values, some of them ahead of it. Starred links: 1 amine or outer side, 2 acyl side, 3 side chain; linkers in the order of their positions; H or OH if unused. Non-standard residues stand in square brackets, D forms with d. Groups on a side chain read outwards from the residue. No end group written: not given here. *: point of attachment. γGlu = O=C(O)[C@H](CCC(=O)[*:2])N[*:1]; Palmitoyl = CCCCCCCCCCCCCCCC(=O)*
What was measured:
Assay in all cases: cell-based or functional assay
human GLP-1 receptor [1] = target: T1, human GLP-1 receptor (human, UniProt P43220 24-463)
human glucagon receptor [2] = target: T2, human glucagon receptor (human, UniProt P47871 26-477)
T2 sequence (P47871 26-477): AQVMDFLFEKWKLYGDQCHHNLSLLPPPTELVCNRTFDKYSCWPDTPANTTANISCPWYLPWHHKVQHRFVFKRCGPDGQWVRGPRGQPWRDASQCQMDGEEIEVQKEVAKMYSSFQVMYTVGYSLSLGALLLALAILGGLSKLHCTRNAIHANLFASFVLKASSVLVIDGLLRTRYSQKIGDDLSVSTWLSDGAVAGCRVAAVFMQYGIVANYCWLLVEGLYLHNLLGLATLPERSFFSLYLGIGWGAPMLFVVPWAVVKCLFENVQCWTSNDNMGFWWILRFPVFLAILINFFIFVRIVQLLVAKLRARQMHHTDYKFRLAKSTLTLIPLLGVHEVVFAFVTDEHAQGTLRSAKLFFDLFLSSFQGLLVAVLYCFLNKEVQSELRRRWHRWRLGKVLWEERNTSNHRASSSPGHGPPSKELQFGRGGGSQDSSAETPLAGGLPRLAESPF

human GLP-1 receptor [3] = target: T1, human GLP-1 receptor; remark: listed apart in the source
human glucagon receptor [4] = target: T2, human glucagon receptor; remark: listed apart in the source

Binder: HSQGTFTSDYSKYLDWRRAQDFVQWLLNT-NH2 [PD23]
- EC50 hGLP1R (cAMP activity assay) (human GLP-1 receptor [1]): 0.05 nM
- EC50 hGCGR (cAMP activity assay) (human glucagon receptor [2]): 0.03 nM

B1: TP552 (peptide)
peptide: H[dS]QGTFLSDYSKLLDSRAAQDFVQWLLQT-NH2
modifications: N-terminus assumed
SMILES: CC(C)C[C@H](NC(=O)[C@H](CC(C)C)NC(=O)[C@H](CCCCN)NC(=O)[C@H](CO)NC(=O)[C@H](Cc1ccc(O)cc1)NC(=O)[C@H](CC(=O)O)NC(=O)[C@H](CO)NC(=O)[C@H](CC(C)C)NC(=O)[C@H](Cc1ccccc1)NC(=O)[C@@H](NC(=O)CNC(=O)[C@H](CCC(N)=O)NC(=O)[C@@H](CO)NC(=O)[C@@H](N)Cc1c[nH]cn1)[C@@H](C)O)C(=O)N[C@@H](CC(=O)O)C(=O)N[C@@H](CO)C(=O)N[C@@H](CCCNC(=N)N)C(=O)N[C@@H](C)C(=O)N[C@@H](C)C(=O)N[C@@H](CCC(N)=O)C(=O)N[C@@H](CC(=O)O)C(=O)N[C@@H](Cc1ccccc1)C(=O)N[C@H](C(=O)N[C@@H](CCC(N)=O)C(=O)N[C@@H](Cc1c[nH]c2ccccc12)C(=O)N[C@@H](CC(C)C)C(=O)N[C@@H](CC(C)C)C(=O)N[C@@H](CCC(N)=O)C(=O)N[C@H](C(N)=O)[C@@H](C)O)C(C)C
- EC50 hGLP1 (cAMP activity assay) (human GLP-1 receptor [3]): 5 nM
- EC50 hGCGR (cAMP activity assay) (human glucagon receptor [4]): 0.02 nM

B2: TP559 (peptide)
peptide: H[dS]QGTFTSDK([γGlu-γGlu-Palmitoyl])SKYLDARAAHDFVQWLLNT-NH2
modifications: N-terminus assumed
SMILES: CCCCCCCCCCCCCCCC(=O)N[C@@H](CCC(=O)N[C@@H](CCC(=O)NCCCC[C@H](NC(=O)[C@H](CC(=O)O)NC(=O)[C@H](CO)NC(=O)[C@@H](NC(=O)[C@H](Cc1ccccc1)NC(=O)[C@@H](NC(=O)CNC(=O)[C@H](CCC(N)=O)NC(=O)[C@@H](CO)NC(=O)[C@@H](N)Cc1c[nH]cn1)[C@@H](C)O)[C@@H](C)O)C(=O)N[C@@H](CO)C(=O)N[C@@H](CCCCN)C(=O)N[C@@H](Cc1ccc(O)cc1)C(=O)N[C@@H](CC(C)C)C(=O)N[C@@H](CC(=O)O)C(=O)N[C@@H](C)C(=O)N[C@@H](CCCNC(=N)N)C(=O)N[C@@H](C)C(=O)N[C@@H](C)C(=O)N[C@@H](Cc1c[nH]cn1)C(=O)N[C@@H](CC(=O)O)C(=O)N[C@@H](Cc1ccccc1)C(=O)N[C@H](C(=O)N[C@@H](CCC(N)=O)C(=O)N[C@@H](Cc1c[nH]c2ccccc12)C(=O)N[C@@H](CC(C)C)C(=O)N[C@@H](CC(C)C)C(=O)N[C@@H](CC(N)=O)C(=O)N[C@H](C(N)=O)[C@@H](C)O)C(C)C)C(=O)O)C(=O)O
- EC50 hGLP1 (cAMP activity assay) (human GLP-1 receptor [3]): 0.05 nM
- EC50 hGCGR (cAMP activity assay) (human glucagon receptor [4]): 0.02 nM

Binder: HSQGTFTSDYSKYLDSLMAQDFVQWLMST-NH2 [PD22]
- EC50 hGLP1R (cAMP activity assay) (human GLP-1 receptor [1]): 0.03 nM
- EC50 hGCGR (cAMP activity assay) (human glucagon receptor [2]): 0.02 nM

Binder: HSQGTFTSDYSKYLDARRAQDFVQWLIRT-NH2 [PD25]
- EC50 hGLP1R (cAMP activity assay) (human GLP-1 receptor [1]): 0.02 nM
- EC50 hGCGR (cAMP activity assay) (human glucagon receptor [2]): 0.04 nM

Binder: HSQGTFTSDYSKYLDSRMAYDFVQWLMNT-NH2 [PD56]
- EC50 hGLP1R (cAMP activity assay) (human GLP-1 receptor [1]): 0.05 nM
- EC50 hGCGR (cAMP activity assay) (human glucagon receptor [2]): 0.08 nM

B3: TP535 (peptide)
peptide: H[dS]QGTFTSDK([γGlu-γGlu-Palmitoyl])SKYLDSRRAHDFVQWLLNT-NH2
modifications: N-terminus assumed
SMILES: CCCCCCCCCCCCCCCC(=O)N[C@@H](CCC(=O)N[C@@H](CCC(=O)NCCCC[C@H](NC(=O)[C@H](CC(=O)O)NC(=O)[C@H](CO)NC(=O)[C@@H](NC(=O)[C@H](Cc1ccccc1)NC(=O)[C@@H](NC(=O)CNC(=O)[C@H](CCC(N)=O)NC(=O)[C@@H](CO)NC(=O)[C@@H](N)Cc1c[nH]cn1)[C@@H](C)O)[C@@H](C)O)C(=O)N[C@@H](CO)C(=O)N[C@@H](CCCCN)C(=O)N[C@@H](Cc1ccc(O)cc1)C(=O)N[C@@H](CC(C)C)C(=O)N[C@@H](CC(=O)O)C(=O)N[C@@H](CO)C(=O)N[C@@H](CCCNC(=N)N)C(=O)N[C@@H](CCCNC(=N)N)C(=O)N[C@@H](C)C(=O)N[C@@H](Cc1c[nH]cn1)C(=O)N[C@@H](CC(=O)O)C(=O)N[C@@H](Cc1ccccc1)C(=O)N[C@H](C(=O)N[C@@H](CCC(N)=O)C(=O)N[C@@H](Cc1c[nH]c2ccccc12)C(=O)N[C@@H](CC(C)C)C(=O)N[C@@H](CC(C)C)C(=O)N[C@@H](CC(N)=O)C(=O)N[C@H](C(N)=O)[C@@H](C)O)C(C)C)C(=O)O)C(=O)O
- EC50 hGLP1 (cAMP activity assay) (human GLP-1 receptor [3]): 0.05 nM
- EC50 hGCGR (cAMP activity assay) (human glucagon receptor [4]): 0.02 nM

B4: TP536 (peptide)
peptide: H[dS]QGTFLSDK([γGlu-γGlu-Palmitoyl])SKLLDSRRAQDFVQWLMQT-NH2
modifications: N-terminus assumed
SMILES: CCCCCCCCCCCCCCCC(=O)N[C@@H](CCC(=O)N[C@@H](CCC(=O)NCCCC[C@H](NC(=O)[C@H](CC(=O)O)NC(=O)[C@H](CO)NC(=O)[C@H](CC(C)C)NC(=O)[C@H](Cc1ccccc1)NC(=O)[C@@H](NC(=O)CNC(=O)[C@H](CCC(N)=O)NC(=O)[C@@H](CO)NC(=O)[C@@H](N)Cc1c[nH]cn1)[C@@H](C)O)C(=O)N[C@@H](CO)C(=O)N[C@@H](CCCCN)C(=O)N[C@@H](CC(C)C)C(=O)N[C@@H](CC(C)C)C(=O)N[C@@H](CC(=O)O)C(=O)N[C@@H](CO)C(=O)N[C@@H](CCCNC(=N)N)C(=O)N[C@@H](CCCNC(=N)N)C(=O)N[C@@H](C)C(=O)N[C@@H](CCC(N)=O)C(=O)N[C@@H](CC(=O)O)C(=O)N[C@@H](Cc1ccccc1)C(=O)N[C@H](C(=O)N[C@@H](CCC(N)=O)C(=O)N[C@@H](Cc1c[nH]c2ccccc12)C(=O)N[C@@H](CC(C)C)C(=O)N[C@@H](CCSC)C(=O)N[C@@H](CCC(N)=O)C(=O)N[C@H](C(N)=O)[C@@H](C)O)C(C)C)C(=O)O)C(=O)O
- EC50 hGLP1 (cAMP activity assay) (human GLP-1 receptor [3]): 5 nM
- EC50 hGCGR (cAMP activity assay) (human glucagon receptor [4]): 0.04 nM

Binder: HSQGTFTSDYSKYLDMQRAHDFVQWLMNT-NH2 [PD55]
- EC50 hGLP1R (cAMP activity assay) (human GLP-1 receptor [1]): 0.01 nM
- EC50 hGCGR (cAMP activity assay) (human glucagon receptor [2]): 0.01 nM

Binder: HSQGTFTSDYSKYLDSRRAQDFVDWLLNA-NH2 [PD48]
- EC50 hGLP1R (cAMP activity assay) (human GLP-1 receptor [1]): 0.02 nM
- EC50 hGCGR (cAMP activity assay) (human glucagon receptor [2]): 0.07 nM

Binder: HSQGIFFSDYSKYLDSRRAQDFVQWLMNT-NH2 [PD52]
- EC50 hGLP1R (cAMP activity assay) (human GLP-1 receptor [1]): 0.02 nM
- EC50 hGCGR (cAMP activity assay) (human glucagon receptor [2]): 0.03 nM

More lines, now with the values ahead:

- EC50 hGLP1R (cAMP activity assay) (human GLP-1 receptor [1]): 0.01 nM
- EC50 hGCGR (cAMP activity assay) (human glucagon receptor [2]): 0.02 nM
Binder: HSQGTFTSDYSKYLDSRRAQDFVDWLINS-NH2 [PD50]

- EC50 hGLP1R (cAMP activity assay) (human GLP-1 receptor [1]): 0.03 nM
- EC50 hGCGR (cAMP activity assay) (human glucagon receptor [2]): 0.05 nM
Binder: HSQGTFTSDYSKYLDELRAYDFVQWLMNT-NH2 [PD27]

- EC50 hGLP1R (cAMP activity assay) (human GLP-1 receptor [1]): 0.06 nM
- EC50 hGCGR (cAMP activity assay) (human glucagon receptor [2]): 0.04 nM
Binder: HSQGTFTSDYSKYLDSIRAQDFVQWLMDT-NH2 [PD36]

- EC50 hGLP1R (cAMP activity assay) (human GLP-1 receptor [1]): 0.02 nM
- EC50 hGCGR (cAMP activity assay) (human glucagon receptor [2]): 0.03 nM
Binder: HSHGTFTSDYSKYLDSRRAQDFVQWLMTT-NH2 [PD51]

- EC50 hGLP1R (cAMP activity assay) (human GLP-1 receptor [1]): 0.01 nM
- EC50 hGCGR (cAMP activity assay) (human glucagon receptor [2]): 0.02 nM
Binder: HSQGTFTSDYSKYLDSRRAQDFVQWLLNQ-NH2 [PD57]

- EC50 hGLP1R (cAMP activity assay) (human GLP-1 receptor [1]): 0.04 nM
- EC50 hGCGR (cAMP activity assay) (human glucagon receptor [2]): 0.06 nM
Binder: HSQGTFTSDYSKYLDSRRAQDFVQWLINY-NH2 [PD31]

- EC50 hGLP1R (cAMP activity assay) (human GLP-1 receptor [1]): 0.01 nM
- EC50 hGCGR (cAMP activity assay) (human glucagon receptor [2]): 0.02 nM
Binder: HSQGTFTSDYSKYLDSRRAQDFVQWLLDS-NH2 [PD59]

- EC50 hGLP1R (cAMP activity assay) (human GLP-1 receptor [1]): 0.01 nM
- EC50 hGCGR (cAMP activity assay) (human glucagon receptor [2]): 0.02 nM
Binder: HSQGTFTSDYSKYLDWRRAQDFVQWLQNT-NH2 [PD44]

- EC50 hGLP1R (cAMP activity assay) (human GLP-1 receptor [1]): 0.02 nM
- EC50 hGCGR (cAMP activity assay) (human glucagon receptor [2]): 0.03 nM
Binder: HSQGTFFSDYSKYLDSRRAQDFVQWLLET-NH2 [PD58]

- EC50 hGLP1R (cAMP activity assay) (human GLP-1 receptor [1]): 0.04 nM
- EC50 hGCGR (cAMP activity assay) (human glucagon receptor [2]): 0.03 nM
Binder: HSQGTFFSDYSHWLDSRRAQDFVQWLMNT-NH2 [PD43]

- EC50 hGLP1 (cAMP activity assay) (human GLP-1 receptor [3]): 0.05 nM
- EC50 hGCGR (cAMP activity assay) (human glucagon receptor [4]): 0.16 nM
Binder: HSQGTFTSDYSKYLDNKRAQDFVQWLMQT-NH2 [PD37]

- EC50 hGLP1R (cAMP activity assay) (human GLP-1 receptor [1]): 0.02 nM
- EC50 hGCGR (cAMP activity assay) (human glucagon receptor [2]): 0.03 nM
Binder: HSQGTFTSDYSKYLDSKRAHDFVQWLLNT-NH2 [PD45]
